Source: US20150151000A1 (INDIANA UNIVERSITY RESEARCH AND TECHNOLOGY, published 2015)

Key:
[1] = target: CRMP2 (endogenous, rat brain synaptosomes, rat brain lysates and rat dorsal root ganglia lysates) (rat, UniProt P47942 1-572); test: SPOTS peptide array overlaid with rat brain synaptosome fraction, anti-CRMP2 far-Western
[2] = target: T1, CRMP2-His (recombinant collapsin response mediator protein 2, NT647-labeled); test: microscale thermophoresis, NT647-labeled CRMP2 constant, peptide titrated 0 to 5 µM, Hill fit
T1 construct: Purified on Talon resin and labeled with NT647 for microscale thermophoresis; also called recombinant CRMP2; NT647-labeled CRMP2

| Binder | binding result [1] | Kd [2] |
| --- | --- | --- |
| YLDWITQAEDIDPEN (Immobilised 15-mer spot; also called L1 peptide of L (CaV1.2)-type channel) [L1 (CaV1.2) peptide] | binds | – |
| YRAWIDKAEEVMLAE (Immobilised 15-mer spot; also called L1 peptide of R (CaV2.3)-type channel) [L1 (CaV2.3) peptide] | binds | – |

More lines, now with the values ahead:

| binding result [1] | Kd [2] | Binder |
| --- | --- | --- |
| binds | – | YMEWISKAEEVILAE (Immobilised 15-mer spot; also called L1 peptide of P/Q (CaV2.1)-type channel) [L1 (CaV2.1) peptide] |
| binds | 3120 nM | YLEWIFKAEEVMLAE (15-mer from the first intracellular loop of CaV2.2; It was immobilised as a spot in the SPOTS array and used as a synthetic peptide in MST; also called L1 (CaV2.2); [388-402]; L1) [L1 peptide (CaV2.2[388-402])] |
| binds | 640 nM | NSSFPSIHCSSWSEE (also called Ct-Dis (CaV1.2 (L)); [2014-2028]; Ct-dis) [Ct-dis peptide (CaV1.2[2014-2028])] |
